Assay [1] has as its target Toll-like receptor 4 (TLR-4) of Caco-2 cells (human (endogenous in Caco-2)) (UniProt O00206).
Assay [2] has the same target. The source holds these as a separate data set.

Sequence of UniProt O00206 (O00206 24-839): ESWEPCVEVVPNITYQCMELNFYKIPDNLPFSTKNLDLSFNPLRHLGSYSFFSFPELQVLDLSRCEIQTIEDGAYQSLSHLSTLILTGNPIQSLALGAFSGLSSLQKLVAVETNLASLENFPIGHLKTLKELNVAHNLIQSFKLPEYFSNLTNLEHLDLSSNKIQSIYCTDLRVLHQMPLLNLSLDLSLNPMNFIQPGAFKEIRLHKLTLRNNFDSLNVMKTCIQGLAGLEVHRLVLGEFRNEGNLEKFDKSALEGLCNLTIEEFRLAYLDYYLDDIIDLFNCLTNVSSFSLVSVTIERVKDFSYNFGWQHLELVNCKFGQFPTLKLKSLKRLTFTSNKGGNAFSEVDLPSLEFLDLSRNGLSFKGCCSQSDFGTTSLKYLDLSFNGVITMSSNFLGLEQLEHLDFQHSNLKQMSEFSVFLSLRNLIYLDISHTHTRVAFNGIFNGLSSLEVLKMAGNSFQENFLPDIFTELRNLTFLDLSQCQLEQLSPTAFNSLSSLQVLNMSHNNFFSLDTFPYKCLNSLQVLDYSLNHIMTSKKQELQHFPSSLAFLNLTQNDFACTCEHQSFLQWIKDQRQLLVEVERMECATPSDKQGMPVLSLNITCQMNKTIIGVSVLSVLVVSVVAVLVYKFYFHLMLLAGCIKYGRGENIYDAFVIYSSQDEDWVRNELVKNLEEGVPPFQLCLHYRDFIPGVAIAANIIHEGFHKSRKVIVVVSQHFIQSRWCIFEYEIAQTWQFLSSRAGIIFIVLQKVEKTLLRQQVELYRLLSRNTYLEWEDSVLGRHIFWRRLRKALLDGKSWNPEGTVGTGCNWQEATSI

In the case of “recombinant Trichinella spiralis galectin with GST tag (GST-rTsgal) (natural protein)”, in assay [1], the TLR-4 protein expression level (Western blot) in Caco-2 cells incubated with rTsgal (50 µg/mL) for 48 h, increase against the PBS group is 47.7% and the TLR-4 transcription level (qPCR) in Caco-2 cells incubated with rTsgal (50 µg/mL) for 48 h, increase against the PBS group worked out at 18.4%. Also, in assay [2], the NF-κB p65 transcription level (qPCR) in Caco-2 cells treated with rTsgal for 48 h, increase against the PBS group amounted to 60.2%.

Values taken from publication PMC10680189.
